This note sets out measurements from PMC11728703.

The target of this test is Bacteriophage P22 small terminase subunit gp3 (S-terminase), full length (bacteriophage P22). The experiment in a line: native MS; co-purified S:L-terminase complex (peak 2) exchanged into 150 mM ammonium acetate pH 8.0, 2 uM, nanoflow electrospray capillary; modified QTOF-2 and Exactive Plus EMR Orbitrap.

Several values for one entry are separate records, joined by “and”; a condition that tells them apart may be missing. Equal values may be shown once.

Sequence of Bacteriophage P22 small terminase subunit gp3 (S-terminase), full length (bacteriophage P22) (P04893 whole entry): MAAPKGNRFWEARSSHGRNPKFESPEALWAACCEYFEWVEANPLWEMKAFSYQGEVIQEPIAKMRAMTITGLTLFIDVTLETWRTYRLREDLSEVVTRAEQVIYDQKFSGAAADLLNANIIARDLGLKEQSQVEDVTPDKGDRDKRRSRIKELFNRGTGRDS

As to “Bacteriophage P22 large terminase subunit gp2 (L-terminase), full length (enzyme)”, the stoichiometry N (gp2 per 1 (gp3)9) was 1 and 2; the stoichiometry N (gp2 per 2 (gp3)9) is 5; the stoichiometry N (gp2 per 3 (gp3)9) was determined as 7.
On to “Bacteriophage P22 small terminase subunit gp3 (S-terminase), full length (natural protein)”, for which the stoichiometry N amounted to 9.

Usually stoichiometry N stands for a count of units in the complex or per binding partner.
